This experiment concerns the target T1, Mus 16-3-3 epsilon (mouse, UniProt P62259 1-255).
T1 construct: VP16 fusion as in the yeast two-hybrid screen; also called 14-3-3 E; 14-3-3 epsilon
T1 sequence: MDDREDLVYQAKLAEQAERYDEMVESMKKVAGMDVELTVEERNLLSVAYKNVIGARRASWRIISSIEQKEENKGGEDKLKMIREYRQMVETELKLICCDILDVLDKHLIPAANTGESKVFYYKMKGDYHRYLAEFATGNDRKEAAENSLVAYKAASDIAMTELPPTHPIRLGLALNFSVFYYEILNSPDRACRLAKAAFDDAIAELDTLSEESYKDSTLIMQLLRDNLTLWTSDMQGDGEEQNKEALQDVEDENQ
Description: yeast two-hybrid, lexA-NADE bait against VP16 mouse embryo cDNA library; His selection, beta-gal assay and mating test.

B1: NADE-lexA fusion protein (other)
chain: MANVHQENEEMEQPLQNGQEDRPVGGGEGHQPAANNNNNNHNHNHNHHRRGQARRLAPNFRWAIPNRQMNDGLGGDGDDMEMFMEEMREIRRKLRELQLRNCLRILMGELSNHHDHHDEFCLMP
notes: range 1-124; Bait of the yeast two-hybrid screen; also called pBTM116-NADE; lexA-X fusion protein
For the molecule B1, the binding result is on record as “binds”.

The record behind these values is patent publication US6939679 (RIKEN, dated 2005).
